Broadly, the Kd is the equilibrium constant for the complex coming apart.

The source of these data is article PMC12155224, “Rare missense variants of the leukocyte common antigen related receptor (LAR) display reduced activity in transcellular adhesion and synapse formation” (Research Square, 2025).

In experiment [1] the target is LAR P381L, full length (human) (UniProt P10586).
Experiment [2] deals with LAR P417L, full length (human) (UniProt P10586).
The target of experiment [3] is LAR V389M, full length (human) (UniProt P10586).
The target of experiment [4] is T1, NGL-3 ECD (extracellular domain of Netrin-G ligand 3, Fc cleaved off) (UniProt Q9NT99 36-576).
T1 construct: after cleavage LEVLFQ should remain at the C-terminus (surmised); source: ExpiCHO-S, purified (Protein A, Fc cleaved off with 3C protease, SEC); not shown: Fc, C-terminal, cleaved
T1 sequence (looked up): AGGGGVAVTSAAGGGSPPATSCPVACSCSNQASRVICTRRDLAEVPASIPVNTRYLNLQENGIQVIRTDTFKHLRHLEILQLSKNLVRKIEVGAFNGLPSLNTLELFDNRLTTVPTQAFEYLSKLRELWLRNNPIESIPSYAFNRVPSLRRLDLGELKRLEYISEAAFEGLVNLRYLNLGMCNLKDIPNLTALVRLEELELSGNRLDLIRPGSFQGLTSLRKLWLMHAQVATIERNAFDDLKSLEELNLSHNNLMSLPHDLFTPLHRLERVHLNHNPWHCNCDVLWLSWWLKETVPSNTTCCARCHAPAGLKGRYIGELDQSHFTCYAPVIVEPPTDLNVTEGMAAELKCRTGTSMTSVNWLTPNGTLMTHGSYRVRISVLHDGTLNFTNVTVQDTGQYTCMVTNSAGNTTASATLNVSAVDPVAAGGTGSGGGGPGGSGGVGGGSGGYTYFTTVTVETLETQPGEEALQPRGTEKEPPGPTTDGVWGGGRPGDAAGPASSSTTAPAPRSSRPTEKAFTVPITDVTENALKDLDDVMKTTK
The experiment is described as follows: MST; His-tagged LAR FN1–4 labelled with RED-tris-NTA, 100 nM; NGL-3 in 1:1 dilution series; 25 mM HEPES pH 7.5, 150 mM NaCl, 0.005 % Tween20; 1 h at RT; Monolith NT.115, medium MST power; MST on time 2.5 s; 1:1 KD model. The following applies: both partners purified.

As for “NGL-3-Fc (soluble fusion of the NGL-3 extracellular domain with Fc) (from UniProt Q9NT99 36-576)”, the cell aggregation index: HEK293T cells with LAR variant + mCherry mixed with HEK293T cells with NGL-3 (NGL-3-CFP, whole on cells, not the Fc fusion) + GFP; decrease against WT LAR in experiment [1], in experiment [2] and in experiment [3] was above 50 % decrease throughout.

B1: LAR FN1–4 WT (recombinant fibronectin III domains 1–4 of human LAR) (domain or fragment)
chain: PKPPIDLVVTETTATSVTLTWDSGNSEPVTYYGIQYRAAGTEGPFQEVDGVATTRYSIGGLSPFSEYAFRVLAVNSIGRGPPSEAVRARTGEQAPSSPPRRVQARMLSASTMLVQWEPPEEPNGLVRGYRVYYTPDSRRPPNAWHKHNTDAGLLTTVGSLLPGITYSLRVLAFTAVGDGPPSPTIQVKTQQGVPAQPADFQAEVESDTRIQLSWLLPPQERIIMYELVYWAAEDEDQQHKVTFDPTSSYTLEDLKPDTLYRFQLAARSDMGVGVFTPTIEARTAQSTPSAPPQKVMCVSMGSTTVRVSWVPPPADSRNGVITQYSVAYEAVDGEDRGRHVVDGISREHSSWDLVGLEKWTEYRVWVRAHTDVGPGPESSPVLVRTDED
modifications: RED-tris-NTA 2nd generation dye on the His tag
notes: leukocyte common antigen related receptor (LAR, PTPRF), human, FN1–4 domains; TEV cleavage site between the His tag and the domains; also called WT LAR FN1–4; LAR FN1–4 domain; source: E. coli BL21(DE3), purified (HisTrap HP or Talon beads, SEC); not shown: His6, N-terminal, kept
Consider B1, for which binding in experiment [4] was characterised by a dissociation constant (Kd) of 3.68 µM.
